In US20120201821A1 (published 2012):
Values belong to the binder of their own block, whether it stands above or below them.

Experiments:
[1] = target: T1, human IL-17RE (human, UniProt Q8NFR9 24-667); test: binding screen on IL-17RE expressing 293 cells
T1 construct: Retrovirally expressed on 293 cells or HDFn fibroblasts from human IL17RE cDNA; A possible Flag tag on the construct is not described; also called hIL-17RE
T1 sequence: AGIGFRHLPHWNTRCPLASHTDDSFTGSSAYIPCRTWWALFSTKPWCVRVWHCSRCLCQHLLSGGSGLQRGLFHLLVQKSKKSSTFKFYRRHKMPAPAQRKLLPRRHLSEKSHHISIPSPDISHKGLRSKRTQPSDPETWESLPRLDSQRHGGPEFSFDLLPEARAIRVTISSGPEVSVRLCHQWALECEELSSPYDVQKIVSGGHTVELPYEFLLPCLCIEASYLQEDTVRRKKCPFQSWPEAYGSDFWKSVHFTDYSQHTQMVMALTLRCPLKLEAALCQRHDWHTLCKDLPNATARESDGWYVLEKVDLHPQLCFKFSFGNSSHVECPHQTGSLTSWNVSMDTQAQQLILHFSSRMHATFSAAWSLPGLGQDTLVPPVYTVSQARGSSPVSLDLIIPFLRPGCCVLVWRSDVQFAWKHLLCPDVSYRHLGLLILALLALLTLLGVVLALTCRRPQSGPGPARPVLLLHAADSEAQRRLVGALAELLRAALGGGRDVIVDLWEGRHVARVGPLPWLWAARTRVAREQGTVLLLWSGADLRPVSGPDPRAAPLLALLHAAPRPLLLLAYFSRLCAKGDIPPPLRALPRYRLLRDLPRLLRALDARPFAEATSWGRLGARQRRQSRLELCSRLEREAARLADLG

[2] = target: T2, human IL-17RB (human, UniProt Q9NRM6 18-502); test: flow cytometry, Flag-tagged hIL-17C on 293 cells expressing the receptor, anti-Flag detection
T2 construct: whole, on cells
T2 sequence (looked up): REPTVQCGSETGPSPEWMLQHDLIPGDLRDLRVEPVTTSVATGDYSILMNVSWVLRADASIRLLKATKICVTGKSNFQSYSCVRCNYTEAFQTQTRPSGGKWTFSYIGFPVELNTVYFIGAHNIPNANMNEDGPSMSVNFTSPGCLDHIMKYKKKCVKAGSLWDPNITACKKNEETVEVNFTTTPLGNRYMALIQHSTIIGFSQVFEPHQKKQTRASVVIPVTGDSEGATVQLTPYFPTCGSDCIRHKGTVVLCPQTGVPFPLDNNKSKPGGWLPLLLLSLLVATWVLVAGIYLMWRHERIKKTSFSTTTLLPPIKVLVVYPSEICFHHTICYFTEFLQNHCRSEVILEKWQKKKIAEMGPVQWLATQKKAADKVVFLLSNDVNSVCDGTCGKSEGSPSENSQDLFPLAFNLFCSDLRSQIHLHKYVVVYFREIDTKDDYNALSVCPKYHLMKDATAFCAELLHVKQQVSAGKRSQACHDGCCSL

[3] = target: T3, human IL-17RC (human, UniProt Q8NAC3 21-791); test: as above
T3 construct: whole, on cells
T3 sequence (looked up): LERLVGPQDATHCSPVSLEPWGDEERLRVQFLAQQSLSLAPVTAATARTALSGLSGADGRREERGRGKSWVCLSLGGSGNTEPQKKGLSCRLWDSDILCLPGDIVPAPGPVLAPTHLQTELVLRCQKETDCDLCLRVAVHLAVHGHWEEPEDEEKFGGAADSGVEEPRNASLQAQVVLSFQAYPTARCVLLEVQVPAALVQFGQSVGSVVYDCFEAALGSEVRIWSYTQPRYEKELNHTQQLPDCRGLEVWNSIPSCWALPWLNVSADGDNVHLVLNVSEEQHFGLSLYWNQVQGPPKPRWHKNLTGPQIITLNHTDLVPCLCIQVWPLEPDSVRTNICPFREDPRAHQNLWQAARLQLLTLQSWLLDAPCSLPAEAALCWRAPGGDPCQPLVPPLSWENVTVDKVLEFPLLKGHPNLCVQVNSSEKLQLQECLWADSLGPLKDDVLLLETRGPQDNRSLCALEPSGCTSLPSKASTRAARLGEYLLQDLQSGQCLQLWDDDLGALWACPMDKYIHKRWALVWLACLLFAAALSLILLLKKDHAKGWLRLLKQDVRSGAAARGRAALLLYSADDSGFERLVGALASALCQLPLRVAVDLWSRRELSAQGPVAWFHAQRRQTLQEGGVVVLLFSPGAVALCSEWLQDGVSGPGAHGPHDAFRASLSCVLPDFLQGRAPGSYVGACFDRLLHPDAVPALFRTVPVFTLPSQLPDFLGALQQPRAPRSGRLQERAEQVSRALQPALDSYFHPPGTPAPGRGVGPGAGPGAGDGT

[4] = target: T4, human IL-17RD (human, UniProt Q8NFM7 17-739); test: as above
T4 construct: whole, on cells
T4 sequence (looked up): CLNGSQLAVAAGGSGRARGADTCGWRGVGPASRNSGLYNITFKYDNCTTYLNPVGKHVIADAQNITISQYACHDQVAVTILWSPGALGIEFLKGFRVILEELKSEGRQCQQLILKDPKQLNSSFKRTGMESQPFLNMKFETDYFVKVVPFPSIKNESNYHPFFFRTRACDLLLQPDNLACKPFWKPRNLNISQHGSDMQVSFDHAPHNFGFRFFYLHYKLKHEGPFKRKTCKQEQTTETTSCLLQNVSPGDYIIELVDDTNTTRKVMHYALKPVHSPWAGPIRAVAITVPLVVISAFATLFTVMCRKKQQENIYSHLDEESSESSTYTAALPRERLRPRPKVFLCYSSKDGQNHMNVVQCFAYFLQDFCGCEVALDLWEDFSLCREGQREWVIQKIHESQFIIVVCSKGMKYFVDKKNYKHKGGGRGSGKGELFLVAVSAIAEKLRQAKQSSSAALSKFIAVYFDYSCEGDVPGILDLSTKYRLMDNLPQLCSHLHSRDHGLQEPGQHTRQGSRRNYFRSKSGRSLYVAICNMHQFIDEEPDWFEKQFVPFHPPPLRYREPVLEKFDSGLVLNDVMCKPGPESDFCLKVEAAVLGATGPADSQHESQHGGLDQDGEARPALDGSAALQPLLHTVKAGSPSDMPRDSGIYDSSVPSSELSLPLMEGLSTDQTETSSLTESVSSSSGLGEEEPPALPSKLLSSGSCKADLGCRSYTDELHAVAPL

[5] = target: T5, human IL-17RA (human, UniProt Q96F46 33-866); test: radioligand competition binding: 125I-hIL-17C displaced by unlabeled hIL-17C on 293 cells expressing hIL-17RA
T5 construct: Retrovirally expressed on 293 cells from human IL17RA cDNA (pMSCV-IRES-GFP); Surface expression was confirmed with an anti-Flag antibody, so the construct may carry a Flag tag; not described; also called hIL-17RA
T5 sequence: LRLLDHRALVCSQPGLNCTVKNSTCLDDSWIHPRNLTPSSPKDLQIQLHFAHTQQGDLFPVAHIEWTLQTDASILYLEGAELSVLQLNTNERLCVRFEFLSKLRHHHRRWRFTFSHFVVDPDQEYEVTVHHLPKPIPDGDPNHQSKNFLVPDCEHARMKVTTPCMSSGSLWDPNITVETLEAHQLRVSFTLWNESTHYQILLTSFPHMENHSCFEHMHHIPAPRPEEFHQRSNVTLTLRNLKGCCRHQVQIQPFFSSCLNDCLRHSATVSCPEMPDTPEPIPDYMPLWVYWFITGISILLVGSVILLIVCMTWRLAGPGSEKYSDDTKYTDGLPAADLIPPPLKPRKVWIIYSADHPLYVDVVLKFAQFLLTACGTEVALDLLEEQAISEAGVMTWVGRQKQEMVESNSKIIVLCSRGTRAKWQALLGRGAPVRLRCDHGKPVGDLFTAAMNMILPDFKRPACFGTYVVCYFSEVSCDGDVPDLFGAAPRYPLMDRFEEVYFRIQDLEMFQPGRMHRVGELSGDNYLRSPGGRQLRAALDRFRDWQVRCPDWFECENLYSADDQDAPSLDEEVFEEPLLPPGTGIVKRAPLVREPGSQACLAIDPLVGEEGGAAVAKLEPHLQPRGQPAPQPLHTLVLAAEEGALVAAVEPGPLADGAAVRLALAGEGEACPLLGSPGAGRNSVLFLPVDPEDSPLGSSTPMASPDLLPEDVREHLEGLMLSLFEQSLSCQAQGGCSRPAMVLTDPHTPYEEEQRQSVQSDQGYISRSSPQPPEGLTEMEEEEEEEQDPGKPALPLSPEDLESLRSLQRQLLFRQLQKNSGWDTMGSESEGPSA
Experimental: (§1) 293 cells expressing the IL-17 receptors were incubated for 2 hours at room temperature with a fixed concentration of iodinated hIL-17C combined with increasing concentrations of unlabeled hIL-17C and including a zero-added, buffer only sample. After the 2-hour incubation, the competition reactions were transferred to a Millipore Multiscreen filter plate and washed 4 times with binding buffer to separate the free from bound iodinated hIL-17C. The filters were counted on a Wallac Wizard 1470 gamma counter and binding data was evaluated using NewLigand software (Genentech), which uses the fitting algorithm of Munson and Rodbard to determine the binding affinity of IL-17C 58.

[6] = target: T1, human IL-17RE; test: radioligand competition binding: 125I-hIL-17C displaced by unlabeled hIL-17C on 293 cells expressing hIL-17RE
Experimental: as §1

binding result [1]: no binding
B1: IL-17B (ligand, UniProt Q9UHF5 21-180, looked up)
chain: QPRSPKSKRKGQGRPGPLAPGPHQVPLDLVSRMKPYARMEEYERNIEEMVAQLRNSSELAQRKCEVNLQLWMSNKRSLSPWGYSINHDPSRIPVDLPEARCLCLGCVNPFTMQEDRSMVSVPVFSQVPVRRRLCPPPPRTGPCRQRAVMETIAVGCTCIF

binding result [1]: no binding
B2: IL-17F (ligand, UniProt Q96PD4 31-163, looked up)
chain: RKIPKVGHTFFQKPESCPPVPGGSMKLDIGIINENQRVSMSRNIESRSTSPWNYTVTWDPNRYPSEVVQAQCRNLGCINAQGKEDISMNSVPIQQETLVVRRKHQGCSVSFQLEKVLVTVGCTCVTPVIHHVQ

binding result [2]: no binding
binding result [3]: no binding
binding result [4]: no binding
Kd [5]: 1400 nM
Kd [6]: 0.35 nM
B3: Flag-tagged mature human IL-17C (His-19 to Val-197) with Gly-77 and Arg-78 substituted to Arg and Thr (ligand)
chain: HHDPSLRGHPHSHGTPHCYSAEELPLGQAPPHLLARGAKWGQALPVALVSSLEAASHRRTHERPSATTQCPVLRPEEVLEADTHQRSISPWRYRVDTDEDRYPQKLAFAECLCRGCIDARTGRETAALNSVRLLQSLLVLRRRPCSRDGSGLPTPGAFAFHTEFIHVPVGCTCVLPRSV
notes: Made in CHO cells as an N-terminal Flag fusion; For the radioligand assay the protein was iodinated (Iodogen); also called hIL-17C; FLAG-tagged hIL-17C; not shown: N-terminal Flag tag

binding result [1]: no binding
B4: IL-17E (ligand, UniProt Q9H293 33-177, looked up)
chain: YSHWPSCCPSKGQDTSEELLRWSTVPVPPLEPARPNRHPESCRASEDGPLNSRAISPWRYELDRDLNRLPQDLYHARCLCPHCVSLQTGSHMDPRGNSELLYHNQTVFYRRPCHGEKGTHKGYCLERRLYRVSLACVCVRPRVMG
notes: also called IL-25
